Measurements: the DeepSol protein solubility set

Assay: soluble on expression in E. coli; label from the status in PepcDB or PDB records

Row | Sequence | soluble on expression in E. coli
1 | AKDDKVTVLSIERGNKLVYLEKLGLRGDQFYYKIERIRESNGVVYIYHTSYIPEQYINANYPNLEYYSSIYNRFKLDYHIHMNDEHFEEINEIVFPTPEHAASVLGVDEQFPTVLQTKITKLESTGQVLEYSETYKRSDYYKIKFISCDRDH | not soluble
2 | MGSDKIHHHHHHMHAWESIQITLDLIEANLSEEISINELANKANLSPFYYQRLFKRLVNKTVMEYIKLRRLARASEYLAEHKNRILDVALNFGFASHETFTRSFKKAYGLTPEKYRANPVKLNHFIKPELILNYAMVDEGVPLIADDIVIEVNRKTLSNPRTFVGIEIEVPICQLVGGETTGIAIVEELWMKLGSQRHNIPNQIPGGNEFAALYMGNAKEGNCMYMAGVEVESGTSVEGYSTFELPVKEYLVCGFEAENFNELVNSAVFKADKFMERWMKKHNLTTTDFAIEMYYPTTPEAAYLEHWIVPVPIEQ | not soluble
3 | MGGSHHHHHHGMASALELLSPQSPFRVDRGEHLPFLVKGARYTLVPAGQEGGGQTWRPLPGTTSPEDSSHLHRGQKKGAALGMAVYPYNCQAHAP | not soluble
4 | MRRIDMRSWIQNTKKLLPDLLPVMQTRMQILQYIRLMQPIGRRNLSASLGMTERVLRSEVQVLKEQNLVHVASSGMTLTEEGTALVLALEDFMKEISGLKVLEKQLKETLDLDEVFVVPGDSDESPWVKLEMGRACVTCIKDRLTANNIVAVAGGTTLAAAADMMQLDCKDLHMLFVPARGGIGEGVELEANTICAKMAQNTMSNYRLLYVPDHVSSEAYASIVTEPSVKEVLELIRSSNIVIHGIGDALTMARRRSTSEADWLKIQASEAVGEAFGYYFNEEGNVVHKVRTVGMQLEDLQNVSHVVAVAGGSSKAKAIQAVIKQGHTSILITDEGAAKQLTKGFTL | not soluble
5 | MAFHWQSKVNVQHVGVDDMVLLPKLTEQSIVENLKKRLQANSIFTYIGPVLISVNPFKQMPYFTEKEMLLYQGAAQYENAPHIYALADNMYRNMLIDNESQCVIISGESGAGKTVNAKFIMNYISRISGGGQKVQHIKDVILQSNPLLEAFGNSATVRNWNSSRFGKYVEIVFSRGGEPIGGKLSNFLLEKSRVVHQNEGDRNFHVFYQLCAGADKNLRSTFGIGELQYYNYLNMSGVFKADDTDDGKEFESTLHAMKVVGVNDQDQLEVLRIVATVLHIGNITFTEENNFAAVSGKDYLEYPAFLLGLTSADIEAKLTGRKMESKWGTQKEEIDMKLNVEQASYTRDAWVKAIYARLFDYLVKKVNDAMNITSQSTSDNFSVGILDIYGFEIFNNNGFEQFCINFVNEKLQQIFIELTLKAEQEEYVREGIKWTEIDYFDNKIVCDLIETKRPPGIMSLLDDTCAQNHGQREGVDRQLLTTLSKSFAGHPHFGPGSDSFVIKHYAGDVTYNVDGFCDRNRDVLYPDLILLMQKSSRPFIQALFPENVAASAGKRPTTFSTKIRTQANTLVESLMKCSPHYVRCIKPNETKRPNDWEESRVKHQVEYLGLRENIRVRRAGFAYRRAFDKFAQRYAIVSPQTWPCFQGDQQRACEIICDSVHMEKNQYQMGKTKIFVKNPESLFLLEETRERKFDGYARVIQKAWRQFSARKQHIKQKEQAADLMYGKKERRRYSLNRNFVGDYIGLEHHPTLQSLVGKRQRVLFACTANKYDRKFRVTKLDLLLTVNHLTLIGKEKVKNGPEKGKIVEVIKRQFDLPQIKSIGLSPYQDDFVILYLGNDDYSSLLETPFKTEFCTALSKAYKERTNGTLHLDFRSSHVVSYKKMKFDFSDGKRTVQFGNDGTSSAEKTLKPNGKVLNVSIGTGLPNTTRPSTERPQGGYTPRRDQLRTSTRRTKQNNQSYGQNGQSQAMRAPVPAHGMNNNYNQTPAPVSTNHQYSQEPARIPVMGNVINQLNNMNLSGNGNSPAGRGPPPARGPKPPPPAKPKLNPVVIAVYPYEAQDVDELSFEAGAEIELMNKDASGWWQGKVNNRVGLFPGNYVKE | not soluble
6 | MSLSEFWKEKHGEREQDHEKTIMDGYSVANRFDGTGGGWGYSANSVEAIQFKVSKEIRLVGVGLYGGRGEYISKLKLYRQIGTEADELYVEQITETDETVYDCGAHETATMLFSQPIVIQPNHWHVVSAKISGPSSDCGANGKRHVECDGVTFQFRKSAVSNNGTDVDVGQIPELYYQIVGGSESRDESDSNKQLSISREGHHHHHH | soluble
7 | MDYMERPKLGLIVREPYASLIVDGRKVWEIRRRKTRHRGPLGIVSGGRLIGQADLVGVEGPFSVEELLAHQEKHLAEEAFLRAYAKDEPLYAWVLENAFRYEKPLHVPRRPGRVMFVDLSEVRW | soluble
8 | MSLKDMSYQAVMGRNNEIMKNAIGLDYSSFEQEGIGFDYEKMMSETGYTLQDIEAIQSQYAVGNTPLIELKNLTKLARKCAKEGKGARIFVKDEAMNASGSFKARRAATAVYHAKQMGYKGVIAATSGNYGAAVASQAAMQGLKCIIVQECYDSNGVGQPEIIEKARKCEAYGAEVVQLTVGPELFYTFLVLLEETGYFNASLYSPFGIAGVETLGYELAIQFREKYKKDPDIVVCTNAGGGNLTGTARGLIKAGSINTKVVGASVDLKGLHMASDNQFNKKSFTTGHTGFGIPYCTWPDRSDVPRSAARPLRYMDRYVLVKQGEVFYTTELLAQLEGIERGPAGNTSLAAAFSLAQELDEDKAIVVQETEYTGAGKHICPQLTFARENGIDIKFGNPREEIAGVNLILPERPELLKCVDIDMNKIRNSFIKNCISNNHIDNIDKLSNRDIEFLMEEVKSSRDFVVDVLNNLEGHHHHHH | not soluble
9 | MGSDKIHHHHHHLSGQQDDVEDGMDQDTLTRIAEALERMAPVPQSTPDFSAASGFVWHVEPDRLEPVPEINRVELDLLVGIDRSRDTLLENTRRFAAGHAANNALLWGARGMGKSSLVKAIHGALVTDHPELKLVELQREDLPSVARLLNHLRGAPCRFILFCDDLSFSHDDQHYKSLKAVLDGGIEGRPENVVFYATSNRRHLMPRDMIENERSSAINPSEAVEEKVSLSDRFGLWLGFHPCNQDAYLAMIEGYCAAYGVTVDPERLRAEAIEWQATRGARSGRVAWQFFTDLAGREGVALR | not soluble
10 | MGSDKIHHHHHHMELKDYFPEMQVGPHPLGDKDWMSIKEGDQYVHFPKSCLSEKERLLLEVGLGQCEVLQPLGSPWQRYLLDHQGNPPQLYETSQFIYLNHQQALPDDLVELLQQMIAGLEVILPISATQTAFLCRQAISIKVLRWLEDLLPTLESDFGLALTMFVGNAWYQVAAGTLRECFEEECQLLTAYLRQQSGRKLLTFSGLMLWSLLSHHTFLALTRQFHQFLSPQSDMADVVHALWSEHGNLVQTAQRLYIHRNSLQYKLDKFAQQSGLHLKQLDDLAFAHLFLLKY | not soluble
11 | MGSDKIHHHHHHMSQHETPLYTGLKKHASRQPVQFHIPGHKKGAGMDPEFRQFIGENALSIDLINIEPLDDLHAPKGIIKQAQDLAAEAFGADHTFFSVQGTSGAIMTMVMAVCGPGDKIIIPRNVHKSIMTAIVFSGAVPIFIHPEIDNELGISHGITLESAKRALTEHPDAKGLLVINPTYFGVAADLKSIVELAHSFDVPVLVDEAHGVHIHFHDELPLSAMQAGADIAATSVHKLGGSLTQSSILNMREGLVSKDRVQSILSMLTTTSTSYLLLASLDVARKRLATEGRQLAEETLKLANQTRDRLNQIEGIYCVGSEILGSKAAYSYDPTKLIISVKSLGLTGHDVEKWLRESFNIEVELSDLYNILCIFTPGDSQNDADRLVEALTEIAQQMSEQDVTHQQTEVLLPEIPLLAMTPRDAFYANTEVIPLKEASGRIIAEFVMVYPPGIPIFIPGEIITEENISYIFKNLDAGLPVQGPEDSTLHMIRVIKEQKAIQ | not soluble
12 | MGSDKIHHHHHHMISQNSCQINESDLKNLKDWFYRYVRSFYSSDSIIQQAILLKEKHSLRVCNEILNIGKKLDLSHNALRLAEVMALFHDIGRFQQFVRYQTFVDQKSENHGELGVRILKQEKALAALDRDARELILKAISYHNRLTIPENESPICTYFSRLLRDADKLDIYYVVTTCYNSNGTERKAAVELDLPDTPEVSGEILISLIEEKMISLHQLKSLNDFKLLQMAWVYDINYLPTFRMIYERNYLRKIRDTLPGTEEIEQVYCKLISFLKAKL | not soluble
13 | MAHHHHHHMIGKIFDNAFRIRTYNRFVCFLIGGTFAYSFSNPDMDTVYDLFPIFKQNKYAYLTFLEVNEKHSNVFEERLKDLCRFYQKQPGYLYTKIIKRIDNINDISKYIVISTWIKSENYLLACNRMYGQILINKIQNYAKYNSYLYRIVVDDSDYLPPI | not soluble
14 | MGKGVRDPGSDGSLRRKELAMIKVEDMMTRHPHTLLRTHTLNDAKHLMEALDIRHVPIVDANKKLLGIVSQRDLLAAQESSLQRSAQGDSLAFETPLFEVMHTDVTSVAPQAGLKESAIYMQKHKIGCLPVVAKDVLVGIITDSDFVTIAINLLELQEESEPDELDEEQ | not soluble
15 | MKKIFMMVHELDVNKGGMTSSMFNRSKEFYDADIPADIVTFDYKGNYDEIIKALKKQGKMDRRTKMYNVFEYFKQISNNKHFKSNKLLYKHISERLKNTIEIEESKGISRYFDITTGTYIAYIRKSKSEKVIDFFKDNKRIERFSFIDNKVHMKETFNVDNKVCYQVFYDEKGYPYISRNINANNGAVGKTYVLVNKKEFKNNLALCVYYLEKLIKDSKDSIMICDGPGSFPKMFNTNHKNAQKYGVIHVNHHENFDDTGAFKKSEKYIIENANKINGVIVLTEAQRLDILNQFDVENIFTISNFVKIHNAPKHFQTEKIVGHISRMVPTKRIDLLIEVAELVVKKDNAVKFHIYGEGSVKDKIAKMIEDKNLERNVFLKGYTTTPQKCLEDFKLVVSTSQYEGQGLSMIEAMISKRPVVAFDIKYGPSDFIEDNKNGYLIENHNINDMADKILQLVNNDVLAAEFGSKARENIIEKYSTESILEKWLNLFNS | not soluble
16 | MSLGEEAAGEGGEAEKTITINVGLLVDETGPTSDVGKGYSLGAELAFKYFNEKGIYTKDGVRVNINYIKRDYAYNPTTAEEYYREFRDRYGVIAIIGWGTADTEKLSDQVDTDKITYISASYSAKLLVKPFNFYPAPDYSTQACSGLAFLASEFGQGKLALAYDSKVAYSRSPIGAIKKAAPSLGLQVVGDYDLPLRATEADAERIAREMLAADPDYVWCGNTISSCSLLGRAMAKVGLDAFLLTNVWGFDERSPQLIGEGGYGKVFGISPFIYPMFGQDVEGIQTIFEAARMNGVSEDQINLRVVQGFVNVWLLIKAIESVTSQDLQERGGEALKEALEANTFDLGGITADTIDYEPGFHLAYRKVFIIKLGENGELQLMGKFEAPSQVDCARYTIEEGHHHHHH | soluble
17 | MRKEAIYHRPADNFAYAYDSETLHLRLRTKKDDIDRVELLHGDPYDWQNGAWQFQMMPMRKTGSDELFDYWFAEVKPPYRRLRYGFVLYSGEEKLVYTEKGFYFEVPTDDTAYYFCFPFLHRVDLFEAPDWVKDTVWYQIFPERFANGNPSISPEGSRPWGSEDPTPTSFFGGDLQGIIDHLDYLVDLGITGIYLTPIFRSPSNHKYDTADYFEVDPHFGDKETLKTLIDRCHEKGIRVMLDAVFNHCGYEFAPFQDVWKNGESSKYKDWFHIHEFPLQTEPRPNYDTFAFVPQMPKLNTANPEVKRYLLDVATYWIREFDIDGWRLDVANEIDHEFWREFRQEVKALKPDVYILGQIWHDAMPWLRGDQFDAVMNYPFTDGVLRFFAKEEISARQFANQMMHVLHSYPNNVNEAAFNLLGSHDTSRILTVCGGDIRKVKLLFLFQLTFTGSPCIYYGDEIGMTGGNDPECRKCMVWDPMQQNKELHQHVKQLIALRKQYRSLRRGEISFLHADDEMNYLIYKKTDGDETVLVIINRSDQKADIPIPLDARGTWLVNLLTGERFAAEAETLCTSLPPYGFVLYAIEHW | soluble
18 | MSERHGVQEATLRNWANLGYITSCRMGNQLFLDDESLTAYLEAHKRLGLQADYLAKIVEEKKLERDFIISRYDDLLYVLRTQKTCKPLYEIIIRELSQLIVHPGARDIFYSISMGESIEKVAGRHRITYDRALQIYNSHLRGLKVRKNVLATYRKHIIDARFQSLADKSKNINLNQEERVLQLSVGKVADTRLTNVLYKEEIRTVGQLLELVSGKGWRWLLKMEGVGRISYDRLLSNLQLAGVVDESLEQILSGRSDR | not soluble
